# T1: monkey GFRα3 expressed with a C-terminal myc-myc-hexahistidine tag (monkey (Mf), UniProt O60609 32-374 (human entry), limits assumed)
# T1 construct: also called MfGFRα3-mmh; MfGFRα3-mmH
# T1 chain: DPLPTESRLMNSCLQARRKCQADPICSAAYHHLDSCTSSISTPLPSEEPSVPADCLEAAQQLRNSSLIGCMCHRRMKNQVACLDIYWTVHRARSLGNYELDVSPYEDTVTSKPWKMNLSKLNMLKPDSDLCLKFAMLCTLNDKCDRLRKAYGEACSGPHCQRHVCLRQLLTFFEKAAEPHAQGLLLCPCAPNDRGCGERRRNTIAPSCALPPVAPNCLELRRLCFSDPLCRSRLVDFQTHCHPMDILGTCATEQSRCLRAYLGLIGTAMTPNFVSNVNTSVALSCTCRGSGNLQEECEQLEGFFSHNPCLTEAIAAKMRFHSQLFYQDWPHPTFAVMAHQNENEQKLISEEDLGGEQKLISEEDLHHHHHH
# T2: human GFRα3 on HEK293/hGFRα3/hRET/SRE-luc cells (human, UniProt O60609 32-382)
# T2 sequence: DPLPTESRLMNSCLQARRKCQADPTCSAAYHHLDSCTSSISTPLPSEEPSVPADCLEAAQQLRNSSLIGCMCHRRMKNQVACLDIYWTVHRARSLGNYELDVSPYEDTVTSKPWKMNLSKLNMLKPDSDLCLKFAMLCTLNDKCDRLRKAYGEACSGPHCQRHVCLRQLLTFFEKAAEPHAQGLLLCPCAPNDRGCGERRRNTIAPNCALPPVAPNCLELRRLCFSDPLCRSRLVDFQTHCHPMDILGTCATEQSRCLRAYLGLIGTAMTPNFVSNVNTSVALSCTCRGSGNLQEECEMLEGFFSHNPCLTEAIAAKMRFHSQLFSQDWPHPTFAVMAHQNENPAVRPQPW
# Columns and labels:
# [1] = molecular target: T3, human GFRα3 expressed with a C-terminal myc-myc-hexahistidine tag (human, UniProt O60609 32-374, biotinylated (sites not given) in ELISA format 2 and in the Octet cross-competition; not in SPR); test: SPR, Ab captured, 25C
# T3 construct: also called hGFRα3-mmh; hGFRα3-mmH
# Method: (§1) Antibodies were tested for binding to human GFRα3 expressed with either a C-terminal myc-myc-hexahistidine tag (hGFRα3-mmh; SEQ ID: 370, a C-terminal hFc tag (hGFRα3-hFc; SEQ ID:371), or a C-terminal mFc tag (hGFRα3-mFc; SEQ ID:372), as well as monkey GFRα3 expressed with a C-terminal myc-myc-hexahistidine tag (MfGFRα3-mmh; SEQ ID:373). Anti-GFRα3 antibodies were captured on either a goat anti-mouse IgG polyclonal antibody (GE Healthcare, #BR-1008-38) or a mouse anti-human IgG monoclonal antibody (GE Healthcare, #BR-1008-39) surface created through direct amine coupling to a Biacore CM5 sensor chip. Kinetic experiments were carried out using HBS-EP (10 mM HEPES, 150 mM NaCl, 3 mM EDTA, 0.05% Surfactant P20, at pH 7.4) or PBS buffer containing 0.05% v/v surfactant P20 as both the running buffer and the sample buffer. Binding to human GFRα3-mmh or monkey GFRα3-mmh was evaluated by injecting several concentrations ranging from 200 to 7.4 nM (3-fold dilutions) across the captured antibody surface. Binding to human GFRα3-mFc or human GFRα3-hFc was evaluated by injecting several concentrations ranging from 100 to 3.7 nM (3-fold dilutions) across the captured antibody surface. Antibody-antigen association was monitored for up to 4 minutes, while dissociation in buffer was monitored for up to 20 minutes. Kinetic association (kₐ) and dissociation (kd) rate constants were determined by processing and fitting the data to a 1:1 binding model using Scrubber 2.0c curve fitting software. Binding dissociation equilibrium constants (KD) and dissociative half-lives (t_{1/2}) were calculated from the kinetic rate constants as: KD (M)=kd/kₐ and t_{1/2} (min)=[ln 2/(60*kd)].
# [2] = molecular target: T4, human GFRα3 expressed with a C-terminal hFc tag (human); test: SPR, Ab captured, 25C
# T4 construct: also called hGFRα3-hFc
# Method: as §1
# [3] = molecular target: T1, monkey GFRα3 expressed with a …; test: SPR, Ab captured, 25C
# Method: as §1
# [4] = molecular target: T3, human GFRα3 expressed with a C-terminal …; test: SPR, Ab captured, 37C
# Method: as §1
# [5] = molecular target: T4, human GFRα3 expressed with a C-terminal …; test: SPR, Ab captured, 37C
# Method: as §1
# [6] = molecular target: T1, monkey GFRα3 expressed with a …; test: SPR, Ab captured, 37C
# Method: as §1
# [7] = molecular target: T2, human GFRα3 on …; test: cell-based or functional assay
Binder,Kd [1] [nM],koff [1] [s⁻¹],kon [1] [M⁻¹ s⁻¹],t1/2 [1] [min],Kd [2] [nM],koff [2] [s⁻¹],kon [2] [M⁻¹ s⁻¹],t1/2 [2] [h],Kd [3] [nM],koff [3] [s⁻¹],kon [3] [M⁻¹ s⁻¹],t1/2 [3] [min],Kd [4] [nM],koff [4] [s⁻¹],kon [4] [M⁻¹ s⁻¹],t1/2 [4] [min],Kd [5] [nM],koff [5] [s⁻¹],kon [5] [M⁻¹ s⁻¹],t1/2 [5] [min],other results
"H1M2243N (antibody, V domains shown, chimeric, human variable and mouse constant domains (H1M)) VH: QVQLVQSGAEVKKPGASVKVSCKASGYTFTSYGIIWVRQAPGQGLEWMGWISGYNGNTNYTQNLQGRVTMTTDTSTTTAYMELRSLRSDDTAVYYCARWGIATRPYYYYGMDVWGQGTTVTVSS VL: DIQMTQSPSSLSASVGDRVTITCRASQDITNYLAWFQQKPGKAPKSLIYAASSLQSGVPSKFSGSGSGTDFTLTISSLQPEDFATYYCQQYNSYPPTFGPGTKVDIK",2.04,0.000261,128000,44,≤ 0.0075,≤ 1e-06,134000,192,10.2,0.000658,64600,18,4.35,0.000595,137000,19,0.117,2.18e-05,186000,529,Kd [6]: 54.7 nM; koff [6]: 0.00275 s⁻¹; kon [6]: 50200 M⁻¹ s⁻¹; t1/2 [6]: 4 min
"H4H2210N (antibody, human IgG4, V domains shown) VH: EVQLLESGGGLVQPGGSLRVSCAASGFTFSTSAMSWVRQAPGKGLEWVSGISGIGGGSTYYADSVKGRFTISRDNSKNTLYLQMNSLRAEDTAVYFCAKFYKWNSYIFDLWGQGTMVTVSS VL: EIVLTQSPDTLSLSPGERATLSCRASQSVSSSYFAWYQQKPGQAPRLLMYSASSRATGIPDRFSGSGSGTDFSLTISRLEPEDFAVYYCQQYGRSLTFGGGTKVEIK",–,–,–,–,–,–,–,–,–,–,–,–,–,–,–,–,–,–,–,–,"IC50 (SRE-luc, HEK293/hGFRα3/hRET cells, 100 pM hARTEMIN-mmH) [7]: 2.9 nM"
"H2aM2210N (antibody, mouse IgG2, V domains shown, chimeric, mouse IgG2 Fc (H2M/H2aM); also called H2M2210N) VH: EVQLLESGGGLVQPGGSLRVSCAASGFTFSTSAMSWVRQAPGKGLEWVSGISGIGGGSTYYADSVKGRFTISRDNSKNTLYLQMNSLRAEDTAVYFCAKFYKWNSYIFDLWGQGTMVTVSS VL: EIVLTQSPDTLSLSPGERATLSCRASQSVSSSYFAWYQQKPGQAPRLLMYSASSRATGIPDRFSGSGSGTDFSLTISRLEPEDFAVYYCQQYGRSLTFGGGTKVEIK",12.8,0.000863,67300,13,0.22,3.69e-05,168000,5.22,28.9,0.0012,41600,10,15.8,0.00335,212000,3,0.242,7.66e-05,316000,151,Kd [6]: 76.4 nM; koff [6]: 0.00618 s⁻¹; kon [6]: 80900 M⁻¹ s⁻¹; t1/2 [6]: 2 min
"H1M2212N (antibody, V domains shown, chimeric, human variable and mouse constant domains (H1M)) VH: EVQLLESGGGLVQPGGSLRLSCAASGFTFSSYAMSWVRQGPGKGLEWVSGISGSGGSTYNADSVKGRFTISRDNSKNTLYLQMNSLRAEDTAVYYCAKDSGTYWYYFDYWGQGILVTVSS VL: not shown",0.197,0.000158,800000,73,0.0128,1.44e-05,1.12e+06,13.3,0.293,0.000112,384000,103,0.297,0.000303,1.02e+06,38,0.0413,6.17e-05,1.49e+06,187,Kd [6]: 0.294 nM; koff [6]: 0.00026 s⁻¹; kon [6]: 884000 M⁻¹ s⁻¹; t1/2 [6]: 44 min
"H2aM2234N (antibody, mouse IgG2, V domains shown, chimeric, mouse IgG2 Fc (H2M/H2aM); also called H2M2234N) VH: EVQLLESGGGLVQSGGSLRLSCAASGFSFNNYAMSWVRQAPGKGLEWVSFISGSGGSTYYADSVKGRFTISRDNSKNTLYLQMNSLRVEDTAVFYCAKDRYNYGTFFDYWGQGTLVTVSS VL: not shown",1.08,0.000711,657000,16,0.101,9.6e-05,950000,2,1.34,0.000571,427000,20,3.43,0.00272,793000,4,0.116,0.000146,1.26e+06,79,Kd [6]: 4.91 nM; koff [6]: 0.00211 s⁻¹; kon [6]: 429000 M⁻¹ s⁻¹; t1/2 [6]: 5 min

# The remaining binders from weak to strong by Kd [1], led by results:
Kd [1] [nM],koff [1] [s⁻¹],kon [1] [M⁻¹ s⁻¹],t1/2 [1] [min],Kd [2] [nM],koff [2] [s⁻¹],kon [2] [M⁻¹ s⁻¹],t1/2 [2] [h],Kd [3] [nM],koff [3] [s⁻¹],kon [3] [M⁻¹ s⁻¹],t1/2 [3] [min],Kd [4] [nM],koff [4] [s⁻¹],kon [4] [M⁻¹ s⁻¹],t1/2 [4] [min],Kd [5] [nM],koff [5] [s⁻¹],kon [5] [M⁻¹ s⁻¹],t1/2 [5] [min],Binder,other results
16,0.0009,56100,13,0.163,2.6e-05,159000,7.4,97.2,0.00388,39900,3,10.8,0.00144,133000,8,0.531,0.000108,203000,107,"H1M2207N (antibody, V domains shown, chimeric, human variable and mouse constant domains (H1M)) VH: EVQLVESGGGLVQPGRSLRLSCAASGFTFNDYAMHWVRQAPGKGLEWVSGISWNSGNIGYADSVKGRFTISRDNAKNSLYLQMNSLRAEDTALYFCARDTRMATRPFDYWGQGTLVTVSS VL: not shown",Kd [6]: 145 nM; koff [6]: 0.00663 s⁻¹; kon [6]: 45800 M⁻¹ s⁻¹; t1/2 [6]: 2 min
0.275,0.000208,760000,56,0.0137,1.76e-05,1.28e+06,11,0.97,0.000286,296000,40,0.532,0.00055,1.03e+06,21,0.061,9.65e-05,1.58e+06,120,"H1M2236N (antibody, V domains shown, chimeric, human variable and mouse constant domains (H1M)) VH: EVQLLESGGNLVQPGGSLRLSCAASGFTFSSYAMTWVRQAPGKGLEWVSTISGSGTSTYYADSVKGRFTISRDNSRDTVFLQMNSLRAEDTAVYYCSKPSALRFLHWLCMDVWGQGTLVTVSS VL: DIQMTQSPSSLSAFVGDRVTITCRASQDIRNYLDWFQQKPGKAPKSLIYAASNLQSGVPSRFGGSGSGTDFTLTINSLQPEDFVTYYCQQYNSYPPTFGGGTKVEIK",Kd [6]: 2.58 nM; koff [6]: 0.00112 s⁻¹; kon [6]: 434000 M⁻¹ s⁻¹; t1/2 [6]: 10 min
